Laboratory results from US20110045003A1 (SYNOVEX, published 2011).

Target: T1, Peptide 2 (amino acids G15-N34 of the Cad-11 EC1 domain) (human)
T1 construct: Range counted on the EC1 domain; also called PEP2
T1 peptide: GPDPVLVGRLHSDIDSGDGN
Assay: ELISA on coated peptide or protein, antibody at one dilution, goat anti-mouse IgG, TMB, OD450
Protocol: To determine the epitope within the Cad-11 EC1 domain that the Peptide 4 Cad-11 EC1 antibodies H1M1 and H14 bind, four different peptides spanning the first 37 amino acids of the EC1 region (see FIG. 22) were immobilized in an ELISA format and the ability of the H1M1 and H14 antibodies to bind each of the four peptides was determined. 96-well Reactibind plates were coated overnight at 4° C. with 0.3 ng/well of Peptide 1 (amino acids G1-P18 of the Cad-11 EC1 domain), 0.3 ng/well of Peptide 2 (amino acids G15-N34 of the Cad-11 EC1 domain), 0.3 ng/well of Peptide 3 (amino acids V19-Y37 of the Cad-11 EC1 domain), 0.3 ng/well of the immunogen Peptide 4 (amino acids G1-G33 of the Cad-11 EC1 domain), 20 ng of a fusion protein including the entire EC1 domain (EFL), or 20 ng of control human Ig (Fc-block). The wells were washed twice with PBS-Tween (0.05%), blocked with casein in dH₂0 for 3 hrs at 22° C. and then washed again twice with PBS-Tween (0.05%). Various dilutions of the different Peptide 4 Cad-11 EC1 domain antibodies were transferred to the peptide- or protein-coated wells, incubated for 45 min at 22° C. and then washed twice with PBS-Tween (0.05%). 100 μl of a 1/1000 dilution of goat anti-mouse IgG secondary antibody (Jackson ImmunoResearch, West Grove, Pa.) were added to each well, incubated for 30 min at 22° C. and then washed twice with PBS-Tween (0.05%). 100 μl/well of room temperature TMB reagent was added to each well and color was allowed to develop for 5 min at 22° C.

B1: murine H1M1 monoclonal anti-Cad-11 EC1 antibody (hybridoma H1M1, ATCC PTA-9699) (antibody, V domains shown)
VH: EVQLQQSGPELVKPGASVKISCKASGYSFTGYFMNWVKQSHGKSLEWIGRINPYTGDTFYNQKFKGKATLTVDKSSSTAHMELLSLSSEDSAVYYCGRLGSRYWYFDVWGAGTTVTVSS
VL: DVLMTQTPLSLPVSLGDQASISCRSSQSIIHSNGNTYLEWYLQKPGQSPKLLIYKVSNRFSGVPDRFTGSGSGTDFTLKISRVEAEDLGVYYCFQGSHVPWTFGGGTKLEIK
modifications: Biotinylated when used as the labelled competitor in Example 14; the letters are unchanged.
notes: murine antibody raised against Peptide 4; also called SYN0012; SYN0012/H1M1
  binding result: binds
